We go through three substances from article PMC2116103.

This test deals with IGF1 receptor on embryonic chick spinal cord motoneurons (chick (endogenous in E6 spinal cord motoneurons)).

For the substance Bovine pancreatic insulin (ligand), the neurite growth from E6 chick motoneurons in vitro, half-maximal effect was determined as 20 nM.
Still for that read-out and setting: for “Highly purified human IGF2 (insulin-like growth factor 2), unlabeled (from UniProt P01344 25-91) (ligand)” the value was 0.2 nM.
As to “Recombinant human IGF1 (insulin-like growth factor 1), unlabeled (from UniProt P05019 22-118) (ligand)”, the neurite growth from E6 chick motoneurons in vitro, half-maximal response came to 0.2 nM.
